Patent US20260000736A1, “PURIFIED LACTOFERRIN COMPOSITIONS AND METHODS OF USE” (Lactea Therapeutics LLC, priority 2023, published 2026)

B1: Lab-grade standard lactoferrin: commercially available lab-grade standard lactoferrin (protein, UniProt P24627 20-708, looked up)
Lactotransferrin: APRKNVRWCTISQPEWFKCRRWQWRMKKLGAPSITCVRRAFALECIRAIAEKKADAVTLDGGMVFEAGRDPYKLRPVAAEIYGTKESPQTHYYAVAVVKKGSNFQLDQLQGRKSCHTGLGRSAGWIIPMGILRPYLSWTESLEPLQGAVAKFFSASCVPCIDRQAYPNLCQLCKGEGENQCACSSREPYFGYSGAFKCLQDGAGDVAFVKETTVFENLPEKADRDQYELLCLNNSRAPVDAFKECHLAQVPSHAVVARSVDGKEDLIWKLLSKAQEKFGKNKSRSFQLFGSPPGQRDLLFKDSALGFLRIPSKVDSALYLGSRYLTTLKNLRETAEEVKARYTRVVWCAVGPEEQKKCQQWSQQSGQNVTCATASTTDDCIVLVLKGEADALNLDGGYIYTAGKCGLVPVLAENRKSSKHSSLDCVLRPTEGYLAVAVVKKANEGLTWNSLKDKKSCHTAVDRTAGWNIPMGLIVNQTGSCAFDEFFSQSCAPGADPKSRLCALCAGDDQGLDKCVPNSKEKYYGYTGAFRCLAEDVGDVAFVKNDTVWENTNGESTADWAKNLNREDFRLLCLDGTRKPVTEAQSCHLAVAPNHAVVSRSDRAAHVKQVLLHQQALFGKNGKNCPDKFCLFKSETKNLLFNDNTECLAKLGGRPTYEEYLGTEYVTAIANLKKCSTSPLLEACAFLTR
B2: heat-treated API-E2 Lactoferrin: API-E2 Lactoferrin heated across a range of 50-100° C. (protein, UniProt P24627 20-708, looked up)
Lactotransferrin: APRKNVRWCTISQPEWFKCRRWQWRMKKLGAPSITCVRRAFALECIRAIAEKKADAVTLDGGMVFEAGRDPYKLRPVAAEIYGTKESPQTHYYAVAVVKKGSNFQLDQLQGRKSCHTGLGRSAGWIIPMGILRPYLSWTESLEPLQGAVAKFFSASCVPCIDRQAYPNLCQLCKGEGENQCACSSREPYFGYSGAFKCLQDGAGDVAFVKETTVFENLPEKADRDQYELLCLNNSRAPVDAFKECHLAQVPSHAVVARSVDGKEDLIWKLLSKAQEKFGKNKSRSFQLFGSPPGQRDLLFKDSALGFLRIPSKVDSALYLGSRYLTTLKNLRETAEEVKARYTRVVWCAVGPEEQKKCQQWSQQSGQNVTCATASTTDDCIVLVLKGEADALNLDGGYIYTAGKCGLVPVLAENRKSSKHSSLDCVLRPTEGYLAVAVVKKANEGLTWNSLKDKKSCHTAVDRTAGWNIPMGLIVNQTGSCAFDEFFSQSCAPGADPKSRLCALCAGDDQGLDKCVPNSKEKYYGYTGAFRCLAEDVGDVAFVKNDTVWENTNGESTADWAKNLNREDFRLLCLDGTRKPVTEAQSCHLAVAPNHAVVSRSDRAAHVKQVLLHQQALFGKNGKNCPDKFCLFKSETKNLLFNDNTECLAKLGGRPTYEEYLGTEYVTAIANLKKCSTSPLLEACAFLTR
modifications: heat-treated

How the values were obtained:
[1] = Differential Scanning Calorimetry (DSC) of apolactoferrin and hololactoferrin forms; type: physicochemical
Description: Di[…] Calorimetry (DSC) was used to assess the hololactoferrin and apolactoferrin forms through monitoring unfolding temperatures of lactoferrin samples using a nanoDSC (TA Instruments, Lindon, UT) according to standard DSC protocols known to those of skill in the art (e.g., see Hinz et al “M[…] […] OF […] ON […] DI[…] CALORIMETRY”; herein incorporated by reference for all purposes.
API-E2 Lactoferrin (10 mg/mL), produced as described herein, was assessed by DSC. […] The lack of other peaks indicates the lack of contaminants and impurities and can assess API-E2 as ˜100%. […] Additionally, the lack of other peaks also indicated the purity of API-E2 Lactoferrin. […] The API-E2 hololactoferrin peak has a Tm of 88.38+/−0.8 C and a delta H of 632.7+/−7.2 kJ/mol. The hololactoferrin natively accounted for on average 8.74+/−1.39% of the total API-E2 lactoferrin with apolactoferrin accounting for the rest in the samples tested. However, the hololactoferrin percentage can be naturally variable. The API-E2 was calculated by this technique to contain virtually 100% pure lactoferrin.
The assay was also performed with heat-treated API-E2 Lactoferrin. API-E2 Lactoferrin was heated across a range of 50-100° C.
Lab-grade standard lactoferrin and a commercially available supplement-grade lactoferrin were also assessed by DSC under the conditions used to assess API-E2 above.

[2] = system: ECM of primary buccal cells; experiment: ECM association by immunofluorescence in primary buccal cells; type: cell-based; details: 100 µg/mL for 1 hr at 37 C
Description: Primary buccal cells were next cultured according to a standard protocol (e.g., see Russo et al. Cytotechnology. 2016 October; 68(5): 2105-2114; herein incorporated by reference for all purposes). […] Immunofluorescence imaging was performed as previously described.

Row | Molecule | Tm, Apolactoferrin peak ([1]; 10 mg/mL) | Tm, Hololactoferrin peak ([1]; 10 mg/mL) | estimated ratio of the apolactoferrin to hololactoferrin peak ([1]; conditions as for API-E2) | ECM association of Lactoferrin (immunofluorescence imaging) [2] | detectable apolactoferrin and hololactoferrin DSC peaks ([1]; conditions as for API-E2)
1 | B1 | 55 C | 85 C | nearly equal | only limited ECM association | 
2 | B2 |  |  |  |  | loss in both detectable peaks
